Assay [1] addresses T1, peptide of sequence no. 1 (GEPGDDAPS, amino acid nos. 757 to 765 of human type 2 collagen) (human, also: biotin-labeled in DELFIA screening, immunogen form had a C-terminal cysteine added).
T1 construct: also called biotin-labeled target antigen peptide
T1 peptide: GEPGDDAPS
In words: characterisation of the antibody (peptide immunisation and DELFIA screening). As to the method: (§1) The screening was done using the time-resolved fluorescence immunoassay (DELFIA, Amersham, registered trademark) described below. 50 μl measurement buffer solution (50 mM tris hydrochloric acid buffer solution (pH 7.5) containing 150 mM NaCl, 0.01% Tween80, 0.5% BSA and 0.05% NaN₃), 50 μl culture supernatant and 50 μl labeled antigen (measurement buffer solution containing 20 ng/ml biotin-labeled target antigen peptide and 100 ng/ml europium-labeled streptoavidine (manufactured by Perkin-Elmer Life Science)) were consecutively added to microtiter plates (manufactured by Sumitomo Bakelite) with solidified anti-mouse IgG antibodies (manufactured by Shibayagi), and a reaction was conducted at 4° C. for 16 hours. After washing the plates twice using 200 μl washing solution (150 mM NaCl, 0.02% NaN₃ and 0.01% Tween20), 150 μl enhancement solution (manufactured by Perkin-Elmer Life Science) were added, and the time-resolved fluorescence was measured using 1420ARVOsx Multilabel Counter (manufactured by Perkin-Elmer Life Science). One well with high reactivity was selected by means of this screening, cloning was repeated twice using the limiting dilution method, and the presence of antibody-producing hybridoma TAG-6G4 was established. […]

For assay [2], the target named is T2, peptide of sequence no. 2 (GPPGPQG, amino acid nos. 769 to 775 of human type 2 collagen) (human, also: immunogen form had an N-terminal cysteine added).
T2 peptide: GPPGPQG
Described as above. As to the method:
as §1

Ends that are not written are not given here.

B1: 6G4 antibody (monoclonal antibody produced by hybridoma TAG-6G4) (antibody, mouse IgG1, V domains shown)
VH: EVQLVESGGSLVQPGGSLKLSCAASGFTFNNYGMSWVRQIPDKRLELVATITGNGHSTYYPVSVRGRFTISRDNAKNTLYLQMSSLKSEDTAMYYCVRGYSNFAFWGQGTTLTVSS
VL: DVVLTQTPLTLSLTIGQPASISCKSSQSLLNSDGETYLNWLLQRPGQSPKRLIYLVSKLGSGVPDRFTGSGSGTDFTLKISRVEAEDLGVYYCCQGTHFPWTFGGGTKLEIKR
notes: Mouse IgG1(k), 150 kDa, H chain 50 kDa and L chain 27 kDa; It was labeled with europium cryptate for the HTRF assay; also called 6G4 antibodies; cryptate-labeled 6G4 antibodies
Regarding B1, in assay [1], the binding result is listed as “binds”.

B2: 2E6 antibody (monoclonal antibody produced by hybridoma TAG-2E6) (antibody, V domains shown)
VH: QVTLKESGPGILQPSQTLSLTCSFSGFSLSTYGMGVGWIRQPSGKGLEWLAHIWWNDNKYYNTTLKSRLTISKDTSNKQVFLKIASVDTADTATYYCARIERWDPWFAYWGQGTLVTVSA
VL: DVVMTQTPLSLPVSLGDQASISCRSSQSLVYSNGNTYFHWYLQKPGQSPKLLIYKVSNRFSGVPDRFSGSGSGTDFTLKISRVEAEDLGVYFCSQSTHVPLTFGAGTKLELKR
notes: Mouse IgG2b(k), 150 kDa, H chain 50 kDa and L chain 27 kDa; It was labeled with XL665 for the HTRF assay and immobilised on a carrier column for purification; also called 2E6 antibodies; XL665-labeled 2E6 antibodies
With B2, the binding result in assay [2] is recorded as “binds”.

The values are drawn from US20090298196A1 (published 2009).
